Experimental findings from patent US20250368745A1 (published 2025) are described below.

B1: SA301a HC-V100aG (antibody, name in Kabat numbering, V domains shown)
VH: QVQLQESGPGLVKPSQTLSLTCTVSGYSITSDYNSHWIRQPPGKGLEWIGYIHYSGSTNYNPSLKSRVTISRDTSKNQFSLKLSSVTAADTAVYYCARNYGSIYGNYFDYWGQGTLVTVSS
VL: EIVLTQSPATLSLSPGERATLSCSASSSVSYMYWYQQKPGQAPRPLIYRTSNLASGIPARFSGSGSGTDFTLTISSLEPEDFAVYYCQQYHSYPTFGGGTKVEIK
notes: IgG1 kappa
B2: SA301a HC-N100bM (antibody, name in Kabat numbering, V domains shown)
VH: B1 VH with G105V, N106M
VL: B1 VL
notes: IgG1 kappa
B3: SA301a HC-V100aI (antibody, name in Kabat numbering, V domains shown)
VH: B1 VH with G105I
VL: B1 VL
notes: IgG1 kappa
B4: SA301a HC-V100aA (antibody, name in Kabat numbering, V domains shown)
VH: B1 VH with G105A
VL: B1 VL
notes: IgG1 kappa
B5: SA301a HC-I99S (antibody, name in Kabat numbering, V domains shown)
VH: B1 VH with I103S, G105V
VL: B1 VL
notes: IgG1 kappa
B6: SA301a HC-I99H (antibody, name in Kabat numbering, V domains shown)
VH: B1 VH with I103H, G105V
VL: B1 VL
notes: IgG1 kappa
B7: SA301a HC-N100bQ (antibody, name in Kabat numbering, V domains shown)
VH: B1 VH with G105V, N106Q
VL: B1 VL
notes: IgG1 kappa
B8: SA301a HC-V100aD (antibody, name in Kabat numbering, V domains shown)
VH: B1 VH with G105D
VL: B1 VL
notes: IgG1 kappa
B9: SA301a HC-I99N (antibody, name in Kabat numbering, V domains shown)
VH: B1 VH with I103N, G105V
VL: B1 VL
notes: IgG1 kappa
B10: SA301a HC-V100aT (antibody, name in Kabat numbering, V domains shown)
VH: B1 VH with G105T
VL: B1 VL
notes: IgG1 kappa
B11: SA301a HC-I99R (antibody, name in Kabat numbering, V domains shown)
VH: B1 VH with I103R, G105V
VL: B1 VL
notes: IgG1 kappa
B12: SA301a HC-V100aF (antibody, name in Kabat numbering, V domains shown)
VH: B1 VH with G105F
VL: B1 VL
notes: IgG1 kappa
B13: SA301a HC-I99Q (antibody, name in Kabat numbering, V domains shown)
VH: B1 VH with I103Q, G105V
VL: B1 VL
notes: IgG1 kappa
B14: SA301a HC-N100bE (antibody, name in Kabat numbering, V domains shown)
VH: B1 VH with G105V, N106E
VL: B1 VL
notes: IgG1 kappa
B15: SA301a HC-V100aH (antibody, name in Kabat numbering, V domains shown)
VH: B1 VH with G105H
VL: B1 VL
notes: IgG1 kappa
B16: SA301a HC-I99A (antibody, name in Kabat numbering, V domains shown)
VH: B1 VH with I103A, G105V
VL: B1 VL
notes: IgG1 kappa
B17: SA301a HC-I99F (antibody, name in Kabat numbering, V domains shown)
VH: B1 VH with I103F, G105V
VL: B1 VL
notes: IgG1 kappa
B18: SA301a HC-I99G (antibody, name in Kabat numbering, V domains shown)
VH: B1 VH with I103G, G105V
VL: B1 VL
notes: IgG1 kappa
B19: SA301a HC-I99M (antibody, name in Kabat numbering, V domains shown)
VH: B1 VH with I103M, G105V
VL: B1 VL
notes: IgG1 kappa
B20: SA301a HC-V100aS (antibody, name in Kabat numbering, V domains shown)
VH: B1 VH with G105S
VL: B1 VL
notes: IgG1 kappa
B21: SA301a HC-I99D (antibody, name in Kabat numbering, V domains shown)
VH: B1 VH with I103D, G105V
VL: B1 VL
notes: IgG1 kappa
B22: SA301a HC-I99E (antibody, name in Kabat numbering, V domains shown)
VH: B1 VH with I103E, G105V
VL: B1 VL
notes: IgG1 kappa
B23: SA301a HC-I99L (antibody, name in Kabat numbering, V domains shown)
VH: B1 VH with I103L, G105V
VL: B1 VL
notes: IgG1 kappa
B24: SA301a HC-I99P (antibody, name in Kabat numbering, V domains shown)
VH: B1 VH with I103P, G105V
VL: B1 VL
notes: IgG1 kappa
B25: SA301a HC-I99Y (antibody, name in Kabat numbering, V domains shown)
VH: B1 VH with I103Y, G105V
VL: B1 VL
notes: IgG1 kappa
B26: SA301a HC-N100bP (antibody, name in Kabat numbering, V domains shown)
VH: B1 VH with G105V, N106P
VL: B1 VL
notes: IgG1 kappa
B27: SA301a HC-V100aN (antibody, name in Kabat numbering, V domains shown)
VH: B1 VH with G105N
VL: B1 VL
notes: IgG1 kappa
B28: SA301a HC-N100bY (antibody, name in Kabat numbering, V domains shown)
VH: B1 VH with G105V, N106Y
VL: B1 VL
notes: IgG1 kappa
B29: SA301a HC-N100bR (antibody, name in Kabat numbering, V domains shown)
VH: B1 VH with G105V, N106R
VL: B1 VL
notes: IgG1 kappa
B30: SA304a (antibody, human IgG1, V domains shown)
VH: B1 VH with S35A, G101A, G105V
VL: B1 VL
B31: SA306a (antibody, human IgG1, V domains shown)
VH: B1 VH with S35N, G105V
VL: B1 VL
B32: SA305a (antibody, human IgG1, V domains shown)
VH: B1 VH with S35A, Y100F, G101A, G105V
VL: B1 VL
B33: SA308a (antibody, human IgG1, V domains shown)
VH: B1 VH with S35A, S57A, G105V
VL: B1 VL
B34: SA301a HC-Y53V (antibody, name in Kabat numbering, V domains shown)
VH: B1 VH with Y54V, G105V
VL: B1 VL
notes: IgG1 kappa
B35: SA301a HC-Y53T (antibody, name in Kabat numbering, V domains shown)
VH: B1 VH with Y54T, G105V
VL: B1 VL
notes: IgG1 kappa
B36: SA301a HC-Y53S (antibody, name in Kabat numbering, V domains shown)
VH: B1 VH with Y54S, G105V
VL: B1 VL
notes: IgG1 kappa

Positions count from the first letter of the chain named.

One experiment addresses T1, cynomolgus IL-18BP (cynomolgus monkey).
T1 construct: also called cyno IL-18BP; cyIL-18BP
T1 chain: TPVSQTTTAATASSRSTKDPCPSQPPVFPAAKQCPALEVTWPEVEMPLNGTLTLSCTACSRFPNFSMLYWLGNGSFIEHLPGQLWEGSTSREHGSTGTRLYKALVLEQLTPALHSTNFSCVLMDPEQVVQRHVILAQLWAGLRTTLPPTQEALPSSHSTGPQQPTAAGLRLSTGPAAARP
The experiment is described as follows: BLI, apparent KD. Background: Biolayer interferometry detects binding as a change in optical thickness at a sensor tip.
As for B1, the Kd is 0.92 nM. On the same count and under the same terms, to B2 belongs 1.83 nM; to B3, 0.25 nM; to B4, 0.15 nM. On to B5, for which the Kd is 0.53 nM. Same read-out and setting: in the case of B6 it was 0.83 nM; in that of B7, 0.42 nM. Same read-out and setting: in the case of B8 it was 0.36 nM; in that of B9, 0.66 nM. With B10, the Kd stood at 0.06 nM.

With B11, the Kd was 0.69 nM. In the case of B12, the Kd is 0.44 nM. Same read-out and setting: in the case of B13 it was 0.44 nM; in that of B14, 0.91 nM.

On to B15, for which the Kd worked out at 0.06 nM. For the molecule B16, the Kd was found to be 0.61 nM.

B17: the Kd is 0.97 nM.

Take B18: the Kd was found to be 0.67 nM. Consider B19, for which the Kd is 0.37 nM. For the molecule B20, the Kd was determined as 0.53 nM. B21: the Kd came out at 1.07 nM. As to B22, the Kd was found to be 3.98 nM. As to B23, the Kd was 0.89 nM. For the molecule B24, the Kd was determined as 0.51 nM.

Turning to B25, the Kd was 0.45 nM.

Consider B26, for which the Kd was 0.11 nM. As to B27, the Kd came out at 0.11 nM. On to B28, for which the Kd came out at 0.47 nM.

Another experiment deals with T2, human IL-18BP (human, UniProt O95998 31-194).
T2 construct: UniProt printed as 095998; also called hIL-18BP
T2 sequence: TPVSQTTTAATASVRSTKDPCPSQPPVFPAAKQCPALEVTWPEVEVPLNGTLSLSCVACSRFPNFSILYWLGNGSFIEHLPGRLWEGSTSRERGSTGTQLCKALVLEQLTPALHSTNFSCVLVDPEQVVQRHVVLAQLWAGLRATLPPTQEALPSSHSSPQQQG
The experiment is described as follows: BLI, apparent KD.
Regarding B1, the Kd was 0.55 nM. As to B3, the Kd came to 0.09 nM. Still for that read-out and setting: in the case of B4 it was 0.47 nM; in that of B5, 0.56 nM. For the molecule B6, the Kd worked out at 0.61 nM. As for B8, the Kd turned out to be 4.99 nM. On the same count and under the same terms, to B9 belongs 0.55 nM. On to B10, for which the Kd was determined as 0.27 nM. For B11, the Kd was found to be 0.46 nM. For the molecule B13, the Kd is 0.25 nM. On the same count and under the same terms, to B14 belongs 0.31 nM. B15: the Kd was found to be 0.41 nM. Consider B16, for which the Kd was determined as 0.51 nM. Turning to B17, the Kd came out at 0.64 nM. Take B18: the Kd worked out at 1.04 nM. On to B19, for which the Kd is 0.21 nM.

In the case of B20, the Kd amounted to 0.28 nM. In the case of B21, the Kd is 1.01 nM. On the same count and under the same terms, to B22 belongs 1.95 nM. Same read-out and setting: to B29 belongs 0.25 nM; to B23, 0.49 nM; to B24, 0.41 nM. On to B25, for which the Kd worked out at 0.48 nM. Take B27: the Kd was 0.68 nM.

The target in the next experiment is T3, human IL-18BP (interleukin-18 binding protein, isoform A) (human, UniProt O95998 31-194).
T3 sequence: T2 sequence
The experiment can be described thus: cell-based or functional assay.
Turning to B30, the “EC50 in PBMC Assay 1 (endogenous IL-18BP), IFNγ” value is 3.1 nM and the “EC50 in PBMC Assay 2 (precomplexed IL-18BP), IFNγ” value is 3 nM. Turning to B31, the “EC50 in PBMC Assay 1 (endogenous IL-18BP), IFNγ” value came out at 127 nM and the “EC50 in PBMC Assay 2 (precomplexed IL-18BP), IFNγ” value was determined as 19.7 nM.

Take B32: the “EC50 in PBMC Assay 1 (endogenous IL-18BP), IFNγ” value stood at 4.4 nM and the “EC50 in PBMC Assay 2 (precomplexed IL-18BP), IFNγ” value came out at 0.79 nM.

As to B33, the “EC50 in PBMC Assay 1 (endogenous IL-18BP), IFNγ” value was 7.9 nM and the “EC50 in PBMC Assay 2 (precomplexed IL-18BP), IFNγ” value is 2.2 nM.

The next experiment deals with T2, human IL-18BP. The experiment can be described thus: BLI, apparent KD. This is another data set of the same source.
In the case of B34, the Kd came to 2.16 nM.

In the case of B35, the Kd is 1.95 nM. For the molecule B36, the Kd is 2.64 nM.
